In US20150197796, “SSB METHOD” (OXFORD NANOPORE TECHNOLOGIES LIMITED, published 2015):

Biological target: EcoSSB-WT (Escherichia coli, UniProt P0AGE0 SEQ:1-177)
Assay: EMSA; 5% TBE gel
Conditions: tags: N-terminal His6-TEV site removed; commercial EcoSSB-WT also run; chain copies: 4 stated (homotetramer in solution)

B1: 70mer polyT (ssDNA)
DNA: TTTTTTTTTTTTTTTTTTTTTTTTTTTTTTTTTTTTTTTTTTTTTTTTTTTTTTTTTTTTTTTTTTTTTT
  binding result: binds
